In patent US20150018285A1 (CARMEL HAIFA UNIVERSITY ECONOMIC, published 2015):
Each block holds one binder with its values, some of them ahead of it.

What was measured:
[1] = target: T1, X-linked inhibitor of apoptosis protein (XIAP) (human, UniProt P98170 1-497); assay: IP of the mitochondrial fraction with anti-Bcl-2 antibody, Western blot (FIG. 4E)
T1 construct: Endogenous XIAP in cell lysates; also called IAP3; BIRC
Procedure: Mitochondrial fraction was immunoprecipitated using anti-Bcl-2 antibody. The precipitate was analyzed by Western blotting.

[2] = target: T2, B-cell lymphoma-extra large (Bcl-xL) (human, UniProt Q07817 1-233); assay: IP with monoclonal anti-ARTS antibody from HeLa wt lysate, Western blot (FIG. 9); binding still seen after 24 h of ABT-263
T2 construct: also called Bch xL

[3] = target: T1, X-linked inhibitor of apoptosis protein …; assay: IP with anti-ARTS monoclonal antibody from COS-7 cells transfected with the 6-Myc-ARTS construct; the partner is endogenous in COS-7 (FIG. 4B)
Procedure: FIG. 4B. […] The precipitate was analyzed by Western blotting.

[4] = target: T3, B-cell CLL/lymphoma 2 (Bcl-2) (human, UniProt P10415 1-239); assay: immunoprecipitation of transfected HeLa lysates with anti-Bcl-2 antibody, Western blot with anti-ARTS (FIG. 11A)
T3 construct: Used as endogenous Bcl-2 (HeLa, BT-549) or from a transfected Bcl-2 construct; also called Bch 2; endogenous Bcl-2
T3 sequence (P10415 whole entry): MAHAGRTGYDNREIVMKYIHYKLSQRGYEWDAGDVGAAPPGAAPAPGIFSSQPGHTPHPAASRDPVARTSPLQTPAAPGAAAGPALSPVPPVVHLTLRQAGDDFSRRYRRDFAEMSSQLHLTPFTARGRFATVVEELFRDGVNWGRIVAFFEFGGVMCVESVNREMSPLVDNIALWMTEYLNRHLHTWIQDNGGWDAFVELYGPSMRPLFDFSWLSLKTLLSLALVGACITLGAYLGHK

T1 sequence (P98170 whole entry): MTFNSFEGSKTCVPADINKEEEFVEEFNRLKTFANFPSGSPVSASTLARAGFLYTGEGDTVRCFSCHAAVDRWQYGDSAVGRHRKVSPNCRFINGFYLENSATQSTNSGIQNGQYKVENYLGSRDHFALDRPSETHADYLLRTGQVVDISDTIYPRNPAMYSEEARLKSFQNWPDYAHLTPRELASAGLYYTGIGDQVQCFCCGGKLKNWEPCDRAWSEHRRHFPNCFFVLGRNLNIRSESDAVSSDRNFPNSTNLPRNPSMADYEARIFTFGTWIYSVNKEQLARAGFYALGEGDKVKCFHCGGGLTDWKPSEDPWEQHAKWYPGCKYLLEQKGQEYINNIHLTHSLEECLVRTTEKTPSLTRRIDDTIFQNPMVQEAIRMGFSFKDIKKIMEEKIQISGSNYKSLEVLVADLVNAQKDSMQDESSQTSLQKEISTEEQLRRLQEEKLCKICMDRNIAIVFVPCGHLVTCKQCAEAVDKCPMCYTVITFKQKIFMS
T2 sequence (Q07817 whole entry G70A): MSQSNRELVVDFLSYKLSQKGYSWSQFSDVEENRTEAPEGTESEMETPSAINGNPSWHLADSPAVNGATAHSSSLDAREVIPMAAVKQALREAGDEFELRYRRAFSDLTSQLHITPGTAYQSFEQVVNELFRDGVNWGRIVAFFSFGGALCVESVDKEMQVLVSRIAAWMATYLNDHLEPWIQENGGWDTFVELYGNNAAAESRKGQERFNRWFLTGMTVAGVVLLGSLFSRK

binding result [1]: binds | binding result [2]: binds
B1: Apoptosis Related Protein in the TGF-beta Signaling Pathway (ARTS) (other)
chain: MIKRFLEDTTDDGELSKFVKDFSGNASCHPPEAKTWASRPQVPEPRPQAPDLYDDDLEFRPPSRPQSSDNQQYFCAPAPLSPSARPRSPWGKLDPYDSSEDDKEYVGFATLPNQVHRKSVKKGFDFTLMVAGESGLGKSTLVNSLFLTDLYRDRKLLGAEERIMQTVEITKHAVDIEEKGVRLRLTIVDTPGFGDAVNNTECWKPVAEYIDQQFEQYFRDESGLNRKNIQDNRVHCCLYFISPFGHGYGPSLRLLAPPGAVKGTGQEHQGQGCH
notes: also called FL ARTS; full length ARTS

binding result [3]: binds
B2: 6-Myc-ARTS (other)
chain: MIKRFLEDTTDDGELSKFVKDFSGNASCHPPEAKTWASRPQVPEPRPQAPDLYDDDLEFRPPSRPQSSDNQQYFCAPAPLSPSARPRSPWGKLDPYDSSEDDKEYVGFATLPNQVHRKSVKKGFDFTLMVAGESGLGKSTLVNSLFLTDLYRDRKLLGAEERIMQTVEITKHAVDIEEKGVRLRLTIVDTPGFGDAVNNTECWKPVAEYIDQQFEQYFRDESGLNRKNIQDNRVHCCLYFISPFGHGYGPSLRLLAPPGAVKGTGQEHQGQGCH
notes: Expressed by transient transfection in COS-7 cells; also called pSC2-6Myc ARTS; not shown: 6xMyc tag of pSC2-6Myc

binding result [4]: no binding
B3: 128 amino acids N' terminus deletion mutated ARTS (other)
chain: MVAGESGLGKSTLVNSLFLTDLYRDRKLLGAEERIMQTVEITKHAVDIEEKGVRLRLTIVDTPGFGDAVNNTECWKPVAEYIDQQFEQYFRDESGLNRKNIQDNRVHCCLYFISPFGHGYGPSLRLLAPPGAVKGTGQEHQGQGCH
